Data as given in PMC6154215.

Assays:
Assay in all cases: fluorescence polarisation
[1] = molecular target: bivalent wild-type ExoS peptide, fluorescently labeled (Pseudomonas aeruginosa)
[2] = molecular target: bivalent ExoS L423A peptide, fluorescently labeled (Pseudomonas aeruginosa) (UniProt Q51451)
[3] = molecular target: monovalent ExoS L423A peptide, fluorescently labeled (Pseudomonas aeruginosa) (UniProt Q51451)

## tobacco 14-3-3 homodimer T14-3-3cΔC (domain or fragment)
[1]
  Kd: 0.0455 µM
[2]
  Kd: 5.9 µM
[3]
  Kd: 127 µM
